Test [1] concerns the target human vasopressin V1a receptor (human) (UniProt P37288). The test is described as follows: radioligand displacement (125I-V1a linear antagonist), SPA beads, COS-1 membranes.
Test [2] deals with human oxytocin receptor (human) (UniProt P30559). The test is described as follows: radioligand displacement (3H-OT), SPA beads, COS-1 membranes.
The target of test [3] is human vasopressin V1b receptor (human) (UniProt P47901). The test is described as follows: cell-based or functional assay.
Chain of human vasopressin V1b receptor (human) (P47901 whole entry): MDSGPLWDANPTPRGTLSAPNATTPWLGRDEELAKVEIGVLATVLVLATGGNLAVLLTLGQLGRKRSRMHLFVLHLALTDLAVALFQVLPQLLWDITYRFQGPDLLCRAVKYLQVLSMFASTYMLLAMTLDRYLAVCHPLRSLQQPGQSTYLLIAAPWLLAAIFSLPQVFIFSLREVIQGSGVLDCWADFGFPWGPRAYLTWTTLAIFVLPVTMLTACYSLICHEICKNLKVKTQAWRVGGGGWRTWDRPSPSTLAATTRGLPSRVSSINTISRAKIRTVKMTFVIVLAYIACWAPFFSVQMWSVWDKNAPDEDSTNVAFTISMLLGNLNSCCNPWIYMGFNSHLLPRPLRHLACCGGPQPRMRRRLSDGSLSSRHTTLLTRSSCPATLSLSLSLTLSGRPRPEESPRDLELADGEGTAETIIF
Test [4] has as its target human vasopressin V1a receptor (human) (UniProt P37288). As to the kind of experiment: cell-based or functional assay.
Test [5] deals with human oxytocin receptor (human) (UniProt P30559). The test is described as follows: cell-based or functional assay.
Test [6] addresses human vasopressin V2 receptor (human) (UniProt P30518). The test is described as follows: radioligand displacement (3H-AVP), filtration, HEK293 membranes.
For test [7], the target named is human vasopressin V1b receptor (human) (UniProt P47901). The test is described as follows: radioligand displacement (3H-AVP), WGA SPA beads, COS-1 membranes.

The text below walks through data of patent US20130130985A1.

Chain of human oxytocin receptor (human) (P30559 whole entry): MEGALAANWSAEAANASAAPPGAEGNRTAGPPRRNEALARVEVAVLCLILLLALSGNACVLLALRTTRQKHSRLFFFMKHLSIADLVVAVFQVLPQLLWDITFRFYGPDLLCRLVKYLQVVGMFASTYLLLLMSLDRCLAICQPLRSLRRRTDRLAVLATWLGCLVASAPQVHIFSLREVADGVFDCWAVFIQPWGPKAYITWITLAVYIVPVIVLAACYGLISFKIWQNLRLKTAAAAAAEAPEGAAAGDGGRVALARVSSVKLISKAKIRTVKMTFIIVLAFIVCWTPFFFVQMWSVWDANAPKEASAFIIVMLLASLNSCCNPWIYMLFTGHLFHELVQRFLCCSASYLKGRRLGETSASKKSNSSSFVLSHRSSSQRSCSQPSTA
Chain of human vasopressin V1a receptor (human) (P37288 whole entry): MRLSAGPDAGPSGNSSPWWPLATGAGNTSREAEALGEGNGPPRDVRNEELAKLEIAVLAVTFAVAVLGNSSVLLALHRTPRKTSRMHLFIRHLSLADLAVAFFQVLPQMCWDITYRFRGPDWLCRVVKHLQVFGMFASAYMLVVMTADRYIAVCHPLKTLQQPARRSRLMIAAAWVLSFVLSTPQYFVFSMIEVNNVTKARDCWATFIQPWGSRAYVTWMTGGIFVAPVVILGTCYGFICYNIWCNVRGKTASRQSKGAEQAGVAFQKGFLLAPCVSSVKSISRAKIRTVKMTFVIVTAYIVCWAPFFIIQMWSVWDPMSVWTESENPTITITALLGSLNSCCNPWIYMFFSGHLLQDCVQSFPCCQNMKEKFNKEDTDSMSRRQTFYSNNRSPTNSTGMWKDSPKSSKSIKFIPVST

In the case of [C1,6U]-OT (peptide), the IC50 in test [1] was found to be 127 nM; in test [2], 538 nM; in test [6], 3.35 µM; in test [7] it was 1760 nM. For the same substance, the EC50, FLIPR calcium assay turned out to be 7.75 nM in test [3], 35.9 nM in test [4] and 1.39 nM in test [5]. The EC50, IP-One HTRF assay in test [3] was 510 nM; in test [4], 269 nM; in test [5] it was 18 nM. Also, the Emax, FLIPR calcium assay amounted to 82% in test [3], 100% in test [4] and 86% in test [5]. The Emax, IP-One HTRF assay in test [3] is 103%; in test [4], 70%; in test [5], 94%.
For the substance [C1,6U]-OT-OH (peptide), in test [3], the EC50, FLIPR calcium assay came out at 2460 nM; the EC50, IP-One HTRF assay is above 100000 nM; the Emax, FLIPR calcium assay came out at 63%.
As to [CH2-S]-OT (peptide), the Emax, IP-One HTRF assay is 75% in test [4] and 64% in test [5].
[Te-Te]-Oxytocin (peptide) had an IC50 in test [2] of 8 nM. In addition, in test [4], the EC50, FLIPR calcium assay was 4280 nM and the EC50, IP-One HTRF assay was above 10000 nM. In test [5], the EC50, FLIPR calcium assay worked out at 11.3 nM; the EC50, IP-One HTRF assay turned out to be 13.3 nM; the Emax, FLIPR calcium assay was 86%; the Emax, IP-One HTRF assay is 98%.
In the case of dOT (peptide), the IC50 in test [2] was found to be 1.7 nM. In addition, in test [4], the EC50, FLIPR calcium assay was determined as 46.1 nM and the Emax, FLIPR calcium assay was found to be 54%. For the same substance, in test [5], the EC50, FLIPR calcium assay was 0.39 nM; the EC50, IP-One HTRF assay is 0.71 nM; the Emax, FLIPR calcium assay was 89%; the Emax, IP-One HTRF assay is 100%.
